Source: US20220195015A1 (published 2022)

What follows are binders tested against SARS-CoV-2 spike receptor binding domain (RBD), wild type (SARS-CoV-2, UniProt P0DTC2 319-539) (assay: ELISA on coated RBD protein).

| Binder | EC50 |
| --- | --- |
| C098 (antibody, V domains shown) VH: EVQLVESGGGLIQPGGSLRLSCAASGFTVSSNYMSWVRQAPGKGLEWVSVIYSGGSTYYADSVKGRFTISRDNSKNTLYLQMNSLRAEDTAVYYCARDLYSSGGTDIWGQGTMVTVSS VL: not shown | 7.7 ng/mL |
| C099 (antibody, V domains shown) VH: EVQLVESGGGLIQPGGSLRLSCAASGITVSSNYMSWVRQAPGKGLEWVSVMYAGGSTFYADSVKGRFTISRDDSKNTLFLQMNSLRAEDTAIYYCARDLYSSGGTDIWGQGTMVTVSS VL: EIVLTQSPGTLSLSPGERATLSCRASQSIGSSYLAWYQQKPGLAPRLLIYGASRRATGIPDKFSGSGSGADFTLTISRLEPEDFAVYYCQQYGSSPGTFGQGTKVEIK | 2.45 ng/mL |
| C708 (antibody, V domains shown) VH: EVQLVESGGGLVQPGGSLRLSCAASGFSFSTYWMSWVRQAPGKGLEWVADIKQDGSEKYFVDSVKGRFTISRDNAKNSLYLHLNSLRAEDTAVYYCAREMAGSGNYYWFGYGMDVWGQGTTVTVSS VL: IRMTQSPSSVSASVGDRVTITCRASQGISSWLAWYQQKPGKAPKLLIYAASSLQSGVPSRFSGSESGTDFTLTISSLQPEDFATYYCQQANSFPLTFGGGTKVEIK | 130 ng/mL |
| C044 (antibody, V domains shown) VH: EVQLVESGGGLVQPGGSLRLSCAASGFTFSSYSMNWVRQAPGKGLEWVSYISSSSSTIYYADSVKGRFTISRDNAKNSLYLQMNSLRDEDTAVYYCAREAHDGALTDYGDYLNWFDPWGQGTLVTVSS VL: SYELTQPPSVSVAPGKTARITCGGNNIGSKSVHWYQQKPGQAPVLVIYYDSDRPSGIPERFSGSNSGNTATLTISRVEAGDEADYYCQVWDSSSDHLYWVFGGGTKLTVL | 1820 ng/mL |
| C045 (antibody, V domains shown) VH: EVQLVESGGGLVQPGGSLRLSCAASGFTFSTYSMNWVRQAPGKGLEWVSYISSSSSTIHYADSVKGRFTISRDNAKNSLYLQMNSLRDEDTAVYYCAREAHDGALTDYGDYLNWFDPWGQGTLVTVSS VL: SYELTQPPSVSVAPGKTARITCGGTNIGSKNVHWYQQKPGQAPVLVIYYDNDRPSGIPERFSGSNSGNTATLTISRVEAGDEADYYCQVWDTTSDHFYWVFGGGTKLTVL | 7 ng/mL |
| C709 (antibody, V domains shown) VH: QVQLVQSGAEVRKPGASVKVSCMASGYTFNTYDINWVRQGTGQGLEWMGWMNPNSGNTGHAQKFQGRVAMTVNTSMNTAYMELSSLRSEDTAVYYCARGADMLNVAVGADFDYWGQGTLVTVSS VL: QSALTQPPSASGSPGQSVTISCTGTSSDVGGYNFVSWFQQHPGKAPKLMIYEVSKRPSGVPDRFSGSKSANTASLTVSGLQAEDEADYFCSSYAGSNNWVFGGGTKLTVL | 7.56 ng/mL |
| C706 (antibody, V domains shown) VH: EVQLVESGGGLVKPGGSLRLSCAASGFTFSNVWMSWVRQAPGKGLEWVGRIKSKIDGGTTEYAAPVKGRFIISRDDSKNTLSLQMNSLKTEDTAVYYCTTDHGREPPVHWGQGTLVTVSS VL: EIVLTQSPGTLSLSPGERASLSCRARQSVYSNYLAWYQHKSGQAPRLLFYGASSRATDIPDRFSASGSGTDFTLTISRLEPEDFAVYYCLQYGPSPTFGPGTRLEIK | 73.5 ng/mL |
| C049 (antibody, V domains shown) VH: QVQLQESGPGLVKPSETLSLTCTVSGGSVSSGTFYWSWIRQPPGKGLEWIGYIHYSGSTNYNPSLKSRVTISVDTSKNQFSLRLSSVTAADTAVYYCARESFYYDRSGYYGSDAFDIWGQGTMVTVSS VL: DIQMTQSPSTLSSSVGDRVTITCRASQNISRWLAWYQQKPGKAPKLLIYKASTLESGVPSRFSGSGSGTKFTLTISSLQPDDFATYYCQQYNSYLYTFGQGTKLEIK | 4.09 ng/mL |
| C095 (antibody, V domains shown) VH: VQLVEAGGGVVQPGRSLRLSCAASGLAFSIYGMHWVRQAPGKGLEWVAIVAQDGSKKYYADSVKGRFTISRDNSKNTLYLEMNSLRTEDTAVYYCVKEGRPSDTVVVVAFDYWGQGSLVTVSS VL: DIQLTQSPSSLSASVGDRVTITCRASQSISNYLNWYQQKPGKAPKVIIYAASSLQSGVPSRFSGSGSGTDFTLTISSLQPEDFATYYCQQSHSIPRTFGQGTKVEIK | 1.1 ng/mL |
| C046 (antibody, V domains shown) VH: EVQLVESGGGLAQPGRSLRLSCAASGFTFDDYAMHWVRQAPGKGLEWVSGINWNSGSLGYADSVKGRFTISRGIAKNSLYLQMNSLRPEDTAFYYCAKAGVRGIAAAGPDLNFDYWGQGTLVTVSS VL: EIVLTQSPATLSLSPGERATLSCRASQSVSSYLAWYQQKPGQAPRLLIYDASNRATGIPARFIGSGSGTDFTLTISSLEPEDFAVYYCQQRITFGQGTRLEIK | 4.02 ng/mL |
| C096 (antibody, V domains shown) VH: EVQLVESGGGLVKPGGSLRLSCVASGFTFRNAWMNWVRQAPGKGLEWVGRIKANSDGGTIDYAEPVQGRFTISREDSRNSLYLQMNSLKTEDTAVYYCTTGPQYDDFGHSYIVDSWGPGTLVTVSS VL: DIVMTQSPLSLPVTLGEPASISCRSSQSLLHSNGFHFLEWYLQKPGQSPQLLIYVGSNRASGVPDRFSGSGSGTDFTLKISRVEAEDVGVYYCMQTLQTPLTFGGGTKVEIK | 5.18 ng/mL |
| C048 (antibody, V domains shown) VH: VQLQESGPGLVKPSETLSLTCAVSGGSVSSGNYYWNWIRQPPGKGLEWIGYIYYSGSTNYNPSLKSRVTISVDTSKNQFSLKLNSVTAADTAVYHCARETYYYDSSGYYISDAFDIWGQGTMVTVSS VL: not shown | 4.8 ng/mL |
| C097 (antibody, V domains shown) VH: QVQLQESGPGLVKPSQTLSLTCTVSGGSISSGPYYWSWIRQHPGKGLEWIGYIYYSGSTYYNPSLKSRVTISVDTSKKQFSLNLNSVTAADTAVYYCARVWQYYDSTGSFDYWGQGTLVTVSS VL: DIVMTQSPLSLPVTPGEPASISCRSSRGLLHSNGYNYLDWYLQKPGQSPQLLIYLGSNRASGVPDRFSGSGSVTDFTLNISRVEAEDVGVYYCMQALQTPFTFGPGTKVDIK | 3.45 ng/mL |
| C707 (antibody, V domains shown) VH: EVQLVESGGGLVKPGGSLRLSCAASGFTFSSYSMNWVRQAPGKGLAWVSSISSSNNIIYYADSVKGRFTISRDDAKDSLYLHMKSLRADDTAVYFCARVPSWAPYQLLPGPFDYWGQGILVTVSS VL: IRMTQSPSSLSASVGDRVTITCQASQAIASYLSWYQHKPGRAPKLLIYDASNLEIGVPSRFSGSGSGTDFTFTISSLQSEDNATYYCQQYESLPGTFGGGTKVEIK | 26 ng/mL |
| C047 (antibody, V domains shown) VH: QVQLQESGPGLVKPSETLSLTCTVSGGSISSTTYYWDWIRQSPGKGLEWIGSIFYTGITYYSPSLKSRVTISVDTSKNQFSLRLNSMTAADTAVYYCARRLRQLWFGPWFDPWGQGTLVTVSS VL: QSALTQPPSASGSPGQSVTISCTGTRSDVGDYNYVSWYQQHPDKAPKLIIYEVTKRPSGVPDRFSGSKSGNTASLTVSGLQAEDEADYYCSSYAGSNNVMFGGGTKLTVL | 11.1 ng/mL |
| C710 (antibody, V domains shown) VH: QVQLQESGPGLVKPSETLSLTCIVSGGSINSTTYYWDWIRQSPGKGLEWIGSIFYTGITYYSPSLKTRVTISVDTSKNQFSLRLNSMTAADTAVYYCARRLRQLWFGPWFDPWGQGTLVTVSS VL: QSALTQPPSASGSPGQSVTISCTGTRSDVGDYNYVSWYQQHPDKAPKLIIFEVTKRPSGVPDRFSGSKSGNTASLTVSGLQAEDEADYYCSSYAGSSNVMFGGGTKLTVL | 17.8 ng/mL |
| C703 (antibody, V domains shown) VH: EVQLLESGGGLVQPGGSLRLSCAGSGFTFSHYALSWVRQAPGKGLEWVSCISGTGGNSHYADSVKGRFTSSRDNSKNILYLQMNSLRAEDTAVYFCAKGGDFWSGYLIPFDSWGQGTLVTVSS VL: SYELTQSPSVSVAPGKTARITCGGDSIGSKNVHWYQQKPGQAPVLVMYYDNDRPSGIPERFSGYNSGNTATLSISRVEAGDEADYYCLVWDGSGDPWVFGGGTKLTVL | 10.9 ng/mL |
| C054 (antibody, V domains shown) VH: EVQLVESGGGLIQPGGSLRLSCAASGFTVSNNYMSWVRQAPGKGLEWVSVIYSGGSTYDADSVKGRFTISRDNSKNTLYLQMNSLSAEDTAVYYCAREGDVEGYYDFWSGYSRDRYYFDYWGQGTLVTVSS VL: QSALTQPASVSGSPGQSITISCTGTSSDVGGYNYVSWYQQHPGKAPKLMIYDVSNRPSGVSNRFSGSKSGNTASLTISGLQAEDEADYYCSSYTSSSARVFGTGTKVTVL | 1.58 ng/mL |
| C052 (antibody, V domains shown) VH: EVQLVESGGGLIRPGGSLRLSCAASGFSVSNNYMSWVRQAPGKGLEWVSVIYSGGTTYYADSVKGRFNISRDNSKNTVYLQMNSLRAEDTAVYYCAREGDVEGYYDFWSGYSRDRYYFDYWGQGALVTVSS VL: QSALTQPASVSGSPGQSITISCTGTSSDVGGYNYVSWYQQHPGKAPKLMIYDVSNRPSGVSNRFSGSKSGNTASLTISGLQAEDEADYYCNSYTSNNTRVFGTGTKVTVL | 1.23 ng/mL |
| C144 (antibody, V domains shown) VH: EVQLVESGGGLIQPGGSLRLSCAASGFTVSNNYMSWVRQAPGKGLEWVSVIYSGGSTYYADSVKGRFTISRDKSKNTLYLQMNRLRAEDTAVYYCAREGEVEGYNDFWSGYSRDRYYFDYWGQGTLVTVSS VL: QSALTQPASVSGSPGQSITISCTGTSSDVGGYNYVSWYQQHPGKAPKLMIYDVSNRPSGVSNRFSGSKSGNTASLTISGLQAEDEADYYCSSYTSSSTRVFGTGTKVTVL | 1.83 ng/mL |
| C704 (antibody, V domains shown) VH: VQLVESGGGVVQPGRSLRLSCAASGFTFSRYGMHWVRQAPGKGLEWVAVSSYDGSNEYYANSVKGRFTISRDNSKNTLYLQMNSLRAEDTAVYYCAKTGASYCGGDCPFHFDYWGQGTLVTVSS VL: IRMTQSPSSLSASVGDRVTITCQASQDINNYLNWYQQKPGKAPKLLIYDASDLETGVPSRFSGGGSGTDFTFTISSLQPEDIATYYCQHYNNLPITFGQGTRLEIK | 13.4 ng/mL |
| C043 (antibody, V domains shown) VH: QLVQSGPEVKKPGTSVKVSCKASGFTFYNSAVQWVRQARGQRLEWVGWIVVGSGNTDYAQKFQERVTMTRDLSTNTAYMEVNSLRSEDTAVYYCAAPYCSGGTCLDGFDIWGQGTMVTVSS VL: EIVLTQSPGTLSLSPGERGTLSCRASQSVRSNYLAWYKQRPGQAPRLLVYGASSRATGIPDRFSGSGSGTDFTLTISRLEPEDFAVYYCQQYGSSPWTFGQGTKVEIK | 12.1 ng/mL |
